{"source": "patent US20230227548A1", "binders": {"B1": {"name": "GCDB72 (bispecific antibody, IgG4, V domains shown)", "VH 1": "EVQLVESGGGLVQPGGSLRLSCAASGFTFNTYAMNWVRQAPGKGLEWVARIRSKYNNYATYYAASVKGRFTISRDDSKNSLYLQMNSLKTEDTAVYYCARHGNFGNSYVSWFAYWGQGTLVTVSS", "VL 1": "QTVVTQEPSLTVSPGGTVTLTCRSSTGAVTTSNYANWVQQKPGQAPRGLIGGTNKRAPGTPARFSGSLLGGKAALTLSGVQPEDEAEYYCALWYSNLWVFGGGTKLTVL", "VH 2": "QVQLVQSGAEVKKPGASVKVSCKASGYSFTGYTMNWVRQAPGQGLEWMGLINPYNSDTNYAQKLQGRVTMTTDTSTSTAYMELRSLRSDDTAVYYCARVALRVALDYWGQGTLVTVSS", "VL 2": "DIQMTQSPSSLSASVGDRVTITCKASQNVATHVGWYQQKPGKAPKRLIYSASYRYSGVPSRFSGSGSGTEFTLTISNLQPEDFATYYCQQYNRYPYTFGQGTKLEIK"}}, "biological_target": "murine GPRC5D (murine) (UniProt Q9JIL6)", "sequence (Q9JIL6 whole entry)": "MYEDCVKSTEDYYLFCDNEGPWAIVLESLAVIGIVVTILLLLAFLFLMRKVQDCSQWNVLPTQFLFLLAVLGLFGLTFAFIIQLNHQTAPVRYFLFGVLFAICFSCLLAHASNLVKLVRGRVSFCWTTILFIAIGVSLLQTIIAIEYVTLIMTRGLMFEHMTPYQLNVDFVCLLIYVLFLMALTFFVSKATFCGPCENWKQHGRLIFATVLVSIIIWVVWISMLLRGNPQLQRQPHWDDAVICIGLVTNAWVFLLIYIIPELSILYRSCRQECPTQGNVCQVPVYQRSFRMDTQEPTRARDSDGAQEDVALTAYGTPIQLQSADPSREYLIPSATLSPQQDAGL", "test": "FACS, murine GPRC5D cells", "data": [{"binder": "B1", "values": [{"measurement": "MFI", "result": 481}]}]}
